{
  "source": "patent US20190134153A1",
  "about": "“IMMUNOMODULATORY EFFECT OF INHALED KINASE INHIBITOR PEPTIDES IN LUNG” (MOERAE MATRIX, INC., priority 2017, published 2019)",
  "experiment_in_all_cases": "Kinase Profiling Assay",
  "assay_type_in_all_cases": "biochemical",
  "conditions_in_all_cases": "100 μM",
  "key": {"[1]": {"molecular_target": "KDR(h) (Homo sapiens, UniProt P35968)", "sequence (P35968 20-1356)": "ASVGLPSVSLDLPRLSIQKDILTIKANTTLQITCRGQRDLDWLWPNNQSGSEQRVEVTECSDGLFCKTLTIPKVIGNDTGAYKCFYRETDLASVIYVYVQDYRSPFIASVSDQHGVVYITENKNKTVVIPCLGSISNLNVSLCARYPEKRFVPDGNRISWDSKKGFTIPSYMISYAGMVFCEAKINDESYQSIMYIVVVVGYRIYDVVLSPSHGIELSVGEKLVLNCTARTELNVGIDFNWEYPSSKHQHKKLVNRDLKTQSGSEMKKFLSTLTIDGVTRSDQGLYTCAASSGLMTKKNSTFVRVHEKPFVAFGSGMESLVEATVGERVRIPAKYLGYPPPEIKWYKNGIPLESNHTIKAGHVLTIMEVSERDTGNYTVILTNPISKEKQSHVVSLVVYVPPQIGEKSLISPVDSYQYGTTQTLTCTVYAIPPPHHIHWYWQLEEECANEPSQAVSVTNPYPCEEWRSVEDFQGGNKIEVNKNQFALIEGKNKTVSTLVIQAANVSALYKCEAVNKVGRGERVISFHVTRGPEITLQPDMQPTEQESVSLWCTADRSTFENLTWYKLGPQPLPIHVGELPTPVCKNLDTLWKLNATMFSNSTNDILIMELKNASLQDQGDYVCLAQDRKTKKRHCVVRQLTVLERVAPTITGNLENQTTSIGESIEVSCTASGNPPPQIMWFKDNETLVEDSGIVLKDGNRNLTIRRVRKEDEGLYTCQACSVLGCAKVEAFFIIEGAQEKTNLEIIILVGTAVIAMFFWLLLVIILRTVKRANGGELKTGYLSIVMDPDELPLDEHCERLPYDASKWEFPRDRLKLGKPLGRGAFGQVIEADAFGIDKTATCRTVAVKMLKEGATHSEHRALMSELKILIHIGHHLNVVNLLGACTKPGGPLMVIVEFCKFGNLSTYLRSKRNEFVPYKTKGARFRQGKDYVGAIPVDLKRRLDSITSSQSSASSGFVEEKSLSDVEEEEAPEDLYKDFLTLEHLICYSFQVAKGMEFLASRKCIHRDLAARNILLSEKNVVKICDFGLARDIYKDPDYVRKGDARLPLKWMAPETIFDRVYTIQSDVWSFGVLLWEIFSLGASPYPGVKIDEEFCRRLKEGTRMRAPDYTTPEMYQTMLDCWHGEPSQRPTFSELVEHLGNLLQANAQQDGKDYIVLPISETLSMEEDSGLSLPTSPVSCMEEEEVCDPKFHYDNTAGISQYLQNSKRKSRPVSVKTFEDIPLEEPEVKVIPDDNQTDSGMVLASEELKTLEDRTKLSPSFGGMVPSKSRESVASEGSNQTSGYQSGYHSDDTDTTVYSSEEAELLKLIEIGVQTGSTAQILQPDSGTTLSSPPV"}, "[2]": {"molecular_target": "cKit(D816V)(h) (Homo sapiens, UniProt P10721, D816V)"}, "[3]": {"molecular_target": "EphA5(h) (Homo sapiens, UniProt P54756)", "sequence (P54756 25-1037)": "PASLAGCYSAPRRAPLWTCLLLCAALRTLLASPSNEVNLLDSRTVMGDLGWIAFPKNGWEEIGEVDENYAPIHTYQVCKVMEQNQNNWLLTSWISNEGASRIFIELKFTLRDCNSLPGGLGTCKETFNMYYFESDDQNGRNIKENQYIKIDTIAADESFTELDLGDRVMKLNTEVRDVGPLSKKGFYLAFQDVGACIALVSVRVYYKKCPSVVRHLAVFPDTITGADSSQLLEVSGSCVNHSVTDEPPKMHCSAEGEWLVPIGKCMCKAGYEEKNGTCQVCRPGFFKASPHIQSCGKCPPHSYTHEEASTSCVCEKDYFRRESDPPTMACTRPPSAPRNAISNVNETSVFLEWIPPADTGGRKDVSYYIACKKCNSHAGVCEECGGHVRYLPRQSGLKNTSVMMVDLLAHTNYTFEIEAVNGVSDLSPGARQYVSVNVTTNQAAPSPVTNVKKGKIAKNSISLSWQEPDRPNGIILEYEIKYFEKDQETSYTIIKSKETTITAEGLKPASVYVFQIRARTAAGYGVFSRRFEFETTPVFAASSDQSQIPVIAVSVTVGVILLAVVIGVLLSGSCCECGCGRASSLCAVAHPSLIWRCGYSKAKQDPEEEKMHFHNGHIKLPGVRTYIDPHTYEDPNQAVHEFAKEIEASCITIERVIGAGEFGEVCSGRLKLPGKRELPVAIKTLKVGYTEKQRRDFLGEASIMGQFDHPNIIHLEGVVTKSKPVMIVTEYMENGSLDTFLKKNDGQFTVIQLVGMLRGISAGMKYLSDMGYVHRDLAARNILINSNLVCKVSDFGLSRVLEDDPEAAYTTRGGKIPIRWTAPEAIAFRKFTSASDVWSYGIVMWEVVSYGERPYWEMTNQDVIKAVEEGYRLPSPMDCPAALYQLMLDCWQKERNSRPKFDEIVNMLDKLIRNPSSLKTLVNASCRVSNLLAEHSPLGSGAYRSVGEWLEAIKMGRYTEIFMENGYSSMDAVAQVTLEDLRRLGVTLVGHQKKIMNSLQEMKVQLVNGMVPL"}, "[4]": {"molecular_target": "T1, CHK1(h) (Homo sapiens, UniProt O14757)", "T1 sequence (O14757 1-476)": "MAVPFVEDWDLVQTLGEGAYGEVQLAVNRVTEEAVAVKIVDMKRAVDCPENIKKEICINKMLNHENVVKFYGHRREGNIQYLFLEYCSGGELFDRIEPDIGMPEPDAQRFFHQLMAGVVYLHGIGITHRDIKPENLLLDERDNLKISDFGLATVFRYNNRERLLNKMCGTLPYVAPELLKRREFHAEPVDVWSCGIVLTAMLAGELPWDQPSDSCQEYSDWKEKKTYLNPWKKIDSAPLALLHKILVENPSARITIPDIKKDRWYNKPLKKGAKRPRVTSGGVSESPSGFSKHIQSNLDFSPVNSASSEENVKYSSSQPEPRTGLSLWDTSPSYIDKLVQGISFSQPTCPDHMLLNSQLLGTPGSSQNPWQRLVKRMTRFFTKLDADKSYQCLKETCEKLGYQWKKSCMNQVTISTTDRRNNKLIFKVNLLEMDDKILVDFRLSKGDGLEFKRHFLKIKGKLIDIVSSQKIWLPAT"}, "[5]": {"molecular_target": "CDK3/cyclinE(h) (Homo sapiens, UniProt Q00526)", "sequence (Q00526 whole entry)": "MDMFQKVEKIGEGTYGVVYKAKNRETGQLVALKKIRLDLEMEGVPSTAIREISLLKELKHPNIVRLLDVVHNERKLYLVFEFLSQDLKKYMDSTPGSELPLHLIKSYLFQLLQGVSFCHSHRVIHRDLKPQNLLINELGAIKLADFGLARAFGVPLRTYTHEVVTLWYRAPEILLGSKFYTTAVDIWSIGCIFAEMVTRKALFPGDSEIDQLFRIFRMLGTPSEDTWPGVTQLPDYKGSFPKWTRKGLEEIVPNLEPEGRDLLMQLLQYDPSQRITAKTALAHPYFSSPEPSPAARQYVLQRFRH", "sequence (P24864 whole entry partner)": "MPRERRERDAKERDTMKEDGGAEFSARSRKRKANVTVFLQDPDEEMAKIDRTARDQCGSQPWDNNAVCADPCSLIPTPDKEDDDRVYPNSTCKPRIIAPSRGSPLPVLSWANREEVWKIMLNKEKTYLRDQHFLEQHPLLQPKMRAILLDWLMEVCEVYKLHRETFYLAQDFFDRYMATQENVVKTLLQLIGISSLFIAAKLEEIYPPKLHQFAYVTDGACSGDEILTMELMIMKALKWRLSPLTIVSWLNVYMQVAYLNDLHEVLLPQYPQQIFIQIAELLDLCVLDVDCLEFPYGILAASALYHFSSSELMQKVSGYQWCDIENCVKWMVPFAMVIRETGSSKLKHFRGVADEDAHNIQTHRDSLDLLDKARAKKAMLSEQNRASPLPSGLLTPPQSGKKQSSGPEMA"}, "[6]": {"molecular_target": "T2, LKB1(h) (Homo sapiens, UniProt Q15831)", "T2 sequence (Q15831 1-433)": "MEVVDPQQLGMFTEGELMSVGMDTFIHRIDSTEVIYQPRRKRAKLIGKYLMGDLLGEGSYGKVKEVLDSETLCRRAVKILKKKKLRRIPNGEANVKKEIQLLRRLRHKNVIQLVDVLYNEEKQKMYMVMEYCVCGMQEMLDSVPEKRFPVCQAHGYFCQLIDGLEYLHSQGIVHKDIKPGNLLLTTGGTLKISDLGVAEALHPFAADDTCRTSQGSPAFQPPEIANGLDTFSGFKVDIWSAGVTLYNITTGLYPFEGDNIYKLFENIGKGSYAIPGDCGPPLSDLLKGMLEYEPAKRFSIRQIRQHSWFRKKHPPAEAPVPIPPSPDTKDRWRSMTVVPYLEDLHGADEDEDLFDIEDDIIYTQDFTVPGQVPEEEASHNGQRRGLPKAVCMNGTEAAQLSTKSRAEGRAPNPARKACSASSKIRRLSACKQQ", "T2 sequence (Q7RTN6 1-431 partner)": "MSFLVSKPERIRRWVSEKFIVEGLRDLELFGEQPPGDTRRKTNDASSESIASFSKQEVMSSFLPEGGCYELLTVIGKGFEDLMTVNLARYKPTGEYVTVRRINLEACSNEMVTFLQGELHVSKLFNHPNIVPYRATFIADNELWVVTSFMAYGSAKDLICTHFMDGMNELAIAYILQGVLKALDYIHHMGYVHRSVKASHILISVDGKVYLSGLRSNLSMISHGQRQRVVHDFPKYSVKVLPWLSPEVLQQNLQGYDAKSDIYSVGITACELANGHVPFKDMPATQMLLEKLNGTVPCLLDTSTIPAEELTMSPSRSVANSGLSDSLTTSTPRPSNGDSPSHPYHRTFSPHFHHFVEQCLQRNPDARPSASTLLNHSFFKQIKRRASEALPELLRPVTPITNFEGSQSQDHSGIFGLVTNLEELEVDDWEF", "T2 sequence (Q9Y376 1-341 partner)": "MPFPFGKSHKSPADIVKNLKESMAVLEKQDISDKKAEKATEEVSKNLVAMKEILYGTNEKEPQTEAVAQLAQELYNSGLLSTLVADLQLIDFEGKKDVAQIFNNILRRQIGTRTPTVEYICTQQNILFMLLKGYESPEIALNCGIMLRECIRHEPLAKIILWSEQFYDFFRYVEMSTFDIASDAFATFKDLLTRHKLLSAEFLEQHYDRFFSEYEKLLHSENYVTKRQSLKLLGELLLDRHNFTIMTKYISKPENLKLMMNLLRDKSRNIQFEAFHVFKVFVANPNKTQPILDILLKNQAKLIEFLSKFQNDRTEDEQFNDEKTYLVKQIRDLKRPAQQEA"}, "[7]": {"molecular_target": "T3, MuSK(h) (Homo sapiens, UniProt O15146)", "T3 sequence (O15146 24-869)": "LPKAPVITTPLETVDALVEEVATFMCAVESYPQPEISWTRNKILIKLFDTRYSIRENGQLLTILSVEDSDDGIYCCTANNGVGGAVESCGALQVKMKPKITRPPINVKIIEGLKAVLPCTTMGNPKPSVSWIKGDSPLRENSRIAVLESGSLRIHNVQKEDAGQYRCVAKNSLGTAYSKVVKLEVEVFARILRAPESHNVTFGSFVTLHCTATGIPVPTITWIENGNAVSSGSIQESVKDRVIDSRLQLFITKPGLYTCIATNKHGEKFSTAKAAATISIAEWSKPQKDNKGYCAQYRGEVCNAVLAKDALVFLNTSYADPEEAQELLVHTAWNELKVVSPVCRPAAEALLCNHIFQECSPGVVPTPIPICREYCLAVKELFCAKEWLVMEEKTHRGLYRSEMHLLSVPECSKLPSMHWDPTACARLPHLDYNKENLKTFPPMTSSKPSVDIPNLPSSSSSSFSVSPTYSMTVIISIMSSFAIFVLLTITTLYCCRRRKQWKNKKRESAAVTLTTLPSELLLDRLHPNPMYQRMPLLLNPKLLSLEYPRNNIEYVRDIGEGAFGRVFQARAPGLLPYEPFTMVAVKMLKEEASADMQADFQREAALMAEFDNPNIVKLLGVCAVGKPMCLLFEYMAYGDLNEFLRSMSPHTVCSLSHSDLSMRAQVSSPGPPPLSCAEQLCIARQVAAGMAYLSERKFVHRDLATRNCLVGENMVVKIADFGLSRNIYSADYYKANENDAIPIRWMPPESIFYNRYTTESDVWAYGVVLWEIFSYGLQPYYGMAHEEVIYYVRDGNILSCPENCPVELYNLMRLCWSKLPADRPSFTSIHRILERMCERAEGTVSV"}, "[8]": {"molecular_target": "EGFR(L858R)(h) (Homo sapiens, UniProt P00533, L858R)"}},
  "data": [
    {"sequence": "FAKLAARLYRKALARQLGVAA [MMI-0300]", "values": [
      {"measurement": "% activity", "setting": "[1]", "result": 101, "unit": "%"},
      {"measurement": "% activity", "setting": "[2]", "result": 60, "unit": "%"},
      {"measurement": "% activity", "setting": "[3]", "result": 18, "unit": "%"},
      {"measurement": "% activity", "setting": "[4]", "result": 91, "unit": "%"},
      {"measurement": "% activity", "setting": "[5]", "result": 94, "unit": "%"},
      {"measurement": "% activity", "setting": "[6]", "result": 101, "unit": "%"},
      {"measurement": "% activity", "setting": "[7]", "result": 93, "unit": "%"}
    ]},
    {"sequence": "KAFAKLAARLYRKALARQLGVAA [MMI-0400]", "values": [
      {"measurement": "% activity", "setting": "[1]", "result": 94, "unit": "%"},
      {"measurement": "% activity", "setting": "[8]", "result": 52, "unit": "%"},
      {"measurement": "% activity", "setting": "[2]", "result": 35, "unit": "%"},
      {"measurement": "% activity", "setting": "[3]", "result": 24, "unit": "%"},
      {"measurement": "% activity", "setting": "[4]", "result": 87, "unit": "%"},
      {"measurement": "% activity", "setting": "[5]", "result": 92, "unit": "%"},
      {"measurement": "% activity", "setting": "[6]", "result": 89, "unit": "%"},
      {"measurement": "% activity", "setting": "[7]", "result": 93, "unit": "%"}
    ]},
    {"sequence": "YARAAARQARAKALNRQLGVA [MMI-0200]", "values": [
      {"measurement": "% activity", "setting": "[1]", "result": 110, "unit": "%"},
      {"measurement": "% activity", "setting": "[8]", "result": 120, "unit": "%"},
      {"measurement": "% activity", "setting": "[2]", "result": 118, "unit": "%"},
      {"measurement": "% activity", "setting": "[3]", "result": 123, "unit": "%"},
      {"measurement": "% activity", "setting": "[6]", "result": 99, "unit": "%"}
    ]},
    {"sequence": "HRRIKAWLKKIKALARQLGVAA [MMI-0500]", "values": [
      {"measurement": "% activity", "setting": "[1]", "result": 15, "unit": "%"},
      {"measurement": "% activity", "setting": "[8]", "result": 26, "unit": "%"},
      {"measurement": "% activity", "setting": "[2]", "result": 30, "unit": "%"},
      {"measurement": "% activity", "setting": "[3]", "result": 42, "unit": "%"},
      {"measurement": "% activity", "setting": "[4]", "result": 65, "unit": "%"},
      {"measurement": "% activity", "setting": "[5]", "result": 8, "unit": "%"},
      {"measurement": "% activity", "setting": "[6]", "result": 51, "unit": "%"},
      {"measurement": "% activity", "setting": "[7]", "result": 27, "unit": "%"}
    ]}
  ]
}
